This note sets out measurements from US20110081663A1 (KYOTO UNIVERSITY, published 2011).

For this test, the target named is molecular probe of the formula (11) (SEQ ID NO. 11), exendin-4(1-39)-Lys40 with the Lys40 side chain labeled …. In words: ex vivo autoradiography of pancreas sections of MIP-GFP mice after i.v. injection; radioactivity co-localised with the GFP signal of beta-cells.

B1: GLP-1 receptors of the pancreatic beta-cells (MIP-GFP mice) (receptor)
chain: GPRPQGTTVSLSETVQKWREYRRQCQRFLTEAPLLATGLFCNRTFDDYACWPDGPPGSFVNVSCPWYLPWASSVLQGHVYRFCTAEGLWLHKDNSSLPWRDLSECEESKRGERNFPEEQLLSLYIIYTVGYALSFSALVIASAILVGFRHLHCTRNYIHLNLFASFILRALSVFIKDAALKWMYSTAAQQHQWDGLLSYQDSLGCRLVFLLMQYCVAANYYWLLVEGVYLYTLLAFSVFSEQRIFKLYLSIGWGVPLLFVIPWGIVKYLYEDEGCWTRNSNMNYWLIIRLPILFAIGVNFLIFIRVICIVVSKLKANLMCKTDIKCRLAKSTLTLIPLLGTHEVIFAFVMDEHARGTLRFIKLFTELSFTSFQGLMVAILYCFVNNEVQMEFRKCWERWRLEHLNIQRDCSMKPLKCPTSSVSSGATVGSSVYAATCQSSYS
notes: whole, on cells; Endogenous receptor in mouse pancreas; also called glucagon-like peptide-1 receptor
On to B1, for which the binding result is on record as “binds”.
